Measured values: US20230167182A1 (BIOSION, published 2023)
Read-outs that look alike come from different tables or passages of the source.

Tests used:
[1] = target: T1, human IL6R expressed on cell surface (human, UniProt P08887 20-468); experiment: cell-based binding FACS on U266 cells
T1 construct: whole, on cells; also called cell surface human IL6R; U266 cells expressing human IL6R
T1 sequence (looked up): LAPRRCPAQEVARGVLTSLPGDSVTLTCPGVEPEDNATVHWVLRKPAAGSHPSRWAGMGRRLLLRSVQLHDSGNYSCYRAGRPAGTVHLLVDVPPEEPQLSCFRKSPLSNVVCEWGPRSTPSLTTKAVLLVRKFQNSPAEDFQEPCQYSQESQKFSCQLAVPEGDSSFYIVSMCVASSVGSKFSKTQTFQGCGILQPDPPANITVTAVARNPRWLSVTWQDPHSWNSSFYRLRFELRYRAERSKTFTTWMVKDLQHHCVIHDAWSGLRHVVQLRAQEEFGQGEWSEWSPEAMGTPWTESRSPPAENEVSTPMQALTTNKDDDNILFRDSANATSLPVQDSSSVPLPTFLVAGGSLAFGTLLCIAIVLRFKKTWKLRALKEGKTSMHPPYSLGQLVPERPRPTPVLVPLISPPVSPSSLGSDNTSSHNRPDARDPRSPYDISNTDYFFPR
Protocol: (§1) The binding activities of the mouse anti-IL6R antibodies to IL6R expressed on cell surface were tested by flow cytometry (FACS). Briefly, human myeloma cells U266 (ATCC® TIB-196™) were harvested from cell culture flasks, washed twice and resuspended in phosphate buffered saline (PBS) containing 2% v/v Fetal Bovine Serum (FACS buffer). 2×10⁵ U266 cells per well were incubated in 96 well-plates with 100 μl of the anti-IL6R antibodies or controls at various concentrations (starting at 40 nM with a 3-fold serial dilution in FACS buffer) for 40 minutes on ice. Cells were washed twice with FACS buffer, and added with 100 μL/well R-Phycoerythrin AffiniPure F(ab′)₂ Fragment Goat Anti-Mouse IgG (H+L) (1:1000 dilution in FACS buffer, Jackson ImmunoResearch Laboratories, Inc., Cat #115-116-146). Following an incubation of 40 minutes at 4° C. in dark, cells were washed three times and resuspended in FACS buffer. Fluorescence was measured using a Becton Dickinson FACS Canto II-HTS equipment. Data was analyzed using Graphpad Prism software and EC₅₀ values were reported.

human IL6R-Fc protein [2] = target: T2, human IL6R-Fc protein (human, biotin-labeled in the ELISAs (sites not given)); experiment: benchmark blocking ELISA: antibody pre-incubated with biotin-labeled human IL6R-Fc, added to plate-coated Tocilizumab (competitor: Tocilizumab)
T2 construct: In house made; also called biotin-labeled human IL6R-Fc protein
Protocol: (§2) ELISA plates were washed once with wash buffer (PBS+0.05% v/v Tween-20, PBST) and then blocked with 200 μl/well blocking buffer (5% w/v non-fatty milk in PBST) overnight at 4° C.
(§3) The next day, the anti-IL6R antibodies of the disclosure or controls were diluted with biotin labeled human IL6R-Fc protein (SEQ ID NO: 43, 13.6 ng/ml in 2.5% w/v non-fatty milk in PBST), starting at 100 nM with a 5-fold serial dilution, and incubated at room temperature for 40 minutes. […] After incubation at 37° C. for 40 minutes, plates were washed 4 times using wash buffer. Then streptavidin conjugated HRP was added, and the plates were incubated for 40 minutes at 37° C. The plates were finally washed using wash buffer, and added with TMB. The reaction was stopped using 1M […], and the absorbance was read on a microplate reader using dual wavelength mode with 450 nm for TMB and 630 nm as the reference wavelength. The OD (450-630) values were plotted against antibody concentration. Data was analyzed using Graphpad Prism software and IC₅₀ values were reported.

human IL6R-Fc protein [3] = target: T2, human IL6R-Fc protein; experiment: as above; remark: listed apart in the source
Protocol: as §2, §3
Target sequence in this assay (chain, as listed by the source limits assumed): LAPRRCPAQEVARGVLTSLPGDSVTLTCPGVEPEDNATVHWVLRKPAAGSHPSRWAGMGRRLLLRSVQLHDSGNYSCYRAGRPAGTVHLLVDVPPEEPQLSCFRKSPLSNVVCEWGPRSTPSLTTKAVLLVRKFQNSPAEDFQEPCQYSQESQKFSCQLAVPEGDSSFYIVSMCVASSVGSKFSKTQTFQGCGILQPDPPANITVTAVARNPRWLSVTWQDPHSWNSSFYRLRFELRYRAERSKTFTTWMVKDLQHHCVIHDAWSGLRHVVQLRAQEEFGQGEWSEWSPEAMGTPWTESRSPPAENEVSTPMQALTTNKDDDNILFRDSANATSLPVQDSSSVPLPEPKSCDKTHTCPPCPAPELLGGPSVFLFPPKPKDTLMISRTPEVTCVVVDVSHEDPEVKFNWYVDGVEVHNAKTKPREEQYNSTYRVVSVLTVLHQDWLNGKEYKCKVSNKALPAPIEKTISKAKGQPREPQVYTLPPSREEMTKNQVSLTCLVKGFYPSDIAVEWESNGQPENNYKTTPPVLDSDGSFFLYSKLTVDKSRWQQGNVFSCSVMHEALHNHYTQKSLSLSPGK

human IL6R-Fc protein [4] = target: T2, human IL6R-Fc protein; experiment: ligand blocking ELISA: antibody pre-incubated with biotin-labeled human IL6R-Fc, added to plate-coated human IL6 (blocked ligand: human IL6)
Target sequence in this assay (chain, as listed by the source limits assumed): as above

macaca IL6R-his protein = target: T3, macaca IL6R-his protein (macaca mulatta); experiment: indirect ELISA on plate-coated macaca IL6R-his
T3 chain: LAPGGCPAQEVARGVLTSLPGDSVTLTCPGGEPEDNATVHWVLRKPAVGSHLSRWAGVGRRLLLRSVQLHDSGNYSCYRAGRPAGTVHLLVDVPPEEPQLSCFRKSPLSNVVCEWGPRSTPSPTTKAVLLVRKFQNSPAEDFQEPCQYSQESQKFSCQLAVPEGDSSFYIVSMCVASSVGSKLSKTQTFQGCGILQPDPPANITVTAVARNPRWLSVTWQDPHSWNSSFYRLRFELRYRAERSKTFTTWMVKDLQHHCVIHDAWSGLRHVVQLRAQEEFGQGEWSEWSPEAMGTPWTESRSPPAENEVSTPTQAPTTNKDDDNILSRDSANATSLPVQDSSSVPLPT
Protocol: The anti-IL6R antibodies were tested for their cross-reaction with macaca IL6R. Briefly, 96-well micro plates were coated with 2 μg/ml macaca IL6R-his protein (in house made, amino acid sequence set forth in SEQ ID NO:45) in carbonate/bicarbonate buffer (pH 9.6), 100 μl/well, for 2 hours at 37° C. ELISA plates were washed once with wash buffer (PBS+0.05% v/v Tween-20, PBST) and then blocked with 200 μl/well blocking buffer (5% w/v non-fatty milk in PBST) for 2 hours at 37° C. Plates were washed 4 times and incubated with 100 μl/well serially diluted anti-IL6R antibodies of the disclosure or controls, starting at 66.67 nM with 5-fold serial dilution in PBST with 2.5% w/v non-fat milk, and incubated at 37° C. for 40 minutes. ELISA plates were washed 4 times again and incubated with 100 μl/well Peroxidase AffiniPure Goat Anti-Mouse IgG, Fcγ Fragment Specific (1:5000 dilution in PBST buffer, Jackson ImmunoResearch Laboratories, Inc., Cat #115-035-071) for 40 minutes at 37° C. After the final wash, plates were incubated with 100 μl/well TMB (InnoReagents). The reaction was stopped 3-10 minutes later at room temperature with 50 μl/well 1M H₂SO₄, and the absorbance of each well was read on a microplate reader using dual wavelength mode with 450 nm for TMB and 630 nm as the reference wavelength. Then the OD (450-630) values were plotted against antibody concentration. Data was analyzed using Graphpad Prism software and EC₅₀ values were reported.

[5] = target: T1, human IL6R expressed on cell surface; experiment: cell-based binding FACS on U266 cells; remark: listed apart in the source
Protocol: as §1

B1: Tocilizumab (antibody, human IgG1, kappa, V domains shown)
VH: QVQLQESGPGLVRPSQTLSLTCTVSGYSITSDHAWSWVRQPPGRGLEWIGYISYSGITTYNPSLKSRVTMLRDTSKNQFSLRLSSVTAADTAVYYCARSLARTTAMDYWGQGSLVTVSS
VL: DIQMTQSPSSLSASVGDRVTITCRASQDISSYLNWYQQKPGKAPKLLIYYTSRLHSGVPSRFSGSGSGTDFTFTISSLQPEDIATYYCQQGNTLPYTFGQGTKVEIKR
notes: In house made; also called benchmark; Actemra
With B1 as the binder, how does the EC50 [1] read?
The EC50 was 1.49 nM.

And the IC50 (human IL6R-Fc protein [2])?
Its IC50 is 1.58 nM.

And the IC50 (human IL6R-Fc protein [3])?
Its IC50 is 1.41 nM.

What about the IC50 (human IL6R-Fc protein [4]) of the same binder?
Its IC50 is 0.773 nM.

And the EC50 (macaca IL6R-his protein)?
The EC50 was 0.0571 nM.

And the EC50 [5]?
Its EC50 is 1.64 nM.

B2: Chimeric 1H7 (antibody, human IgG1, kappa, V domains shown)
VH: QVQLQQPGTELVKPGASVKLSCKASGYTFTNYWMHWVKQRPGQGLDWIGEINPTNGRTNYNENFKSKATLTVDKSSSTAYMQLSSLTSEDSAVYYCARLNTHYVFDSWGQGTTLTLSS
VL: EIVLTQSPTTLAASPGEKITFTCSVSSSISSNYLHWYQQKPGFSPKLLISRTSTLASGVPARFSGSGSGTSYSLTIGTMEAEDVATYYCQQGSGIPFTFGSGTKLELKR
notes: Mouse variable regions on human IgG1 / human kappa constant regions; also called chimeric antibody 1H7
With B2 as the binder, how does the IC50 (human IL6R-Fc protein [4]) read?
Its IC50 is 0.261 nM.

B3: mouse anti-IL6R monoclonal antibody 1F7 (antibody, V domains shown)
VH: QVQLQQPGAELVKPGASVKLSCKASDYTFTSYWMHWVKQRPGQGLEWIGEINPSNGRTNYNEKFKNKATLTVDKSSSTAYVQLYSLTSEDSAVYYCARLSIHYVFDYWGQGTTLTVSS
VL: ELVLTQSPTTMAASPGEKITFTCSASSSISSNYLHWYQQKPGFSPKLLISGTSNLASGVPPRFSGSGSGTSYSLTIVTMEAEDVATYYCQQGSGIPFTFGSGTKLEIK
notes: Mouse hybridoma mAb
What does the source list for B3?
EC50 (macaca IL6R-his protein): 0.14 nM; EC50 [5]: 0.304 nM

B4: mouse anti-IL6R monoclonal antibody 1D4 (antibody, V domains shown)
VH: QVQLQQPGAELVKPGASVKLSCKASGYTFTSYWMHWVKVRPGQGLEWIGEINPTNGRTNYNEDFKSKATLTVNSSSSTAYMQLSSLTSEDSAVYYCARLNTHYVFDYWGQGTTLTVSS
VL: EIVLTQSPTILAASPGEKITFTCSVSSSISSNYLHWYQQKPGFSPKLLIYRTSNLASGVPARFSGSGSGTSYSLTIGTMEAEDVATYYCQQGSGIPFTFGSGTKLEIK
notes: Mouse hybridoma mAb
How did the EC50 [5] turn out when B4 was run?
Its EC50 is 0.274 nM.

B5: mouse anti-IL6R monoclonal antibody 3C2 (antibody, V domains shown)
VH: QVQLQQPGTELVKPGASVKLSCKASGYTFTTYWIHWVKQRPGQGLEWIGEINPSNGRTNYNEHFKSKATLTVDKSSSTASMQLSSLTSADSAVYYCARLNTHYVFDSWGQGTTLTVSS
VL: EIVLTQSPTTMAASPGEKITITCSASSSISSNYLHWYQQKPGFSPKLLIYRTSNLASGVPTHFSGSGSGTSYSLTIGTMEAEDVATYYCQQGSGIPFTFGSGTKLEIK
notes: Mouse hybridoma mAb
B5 was tested. Which EC50 [1] did it give?
Its EC50 is 0.286 nM.

What about the EC50 (macaca IL6R-his protein) of the same binder?
The EC50 was 0.296 nM.

B6: mouse anti-IL6R monoclonal antibody 1H7 (antibody, V domains shown)
VH: QVQLQQPGTELVKPGASVKLSCKASGYTFTNYWMHWVKQRPGQGLDWIGEINPTNGRTNYNENFKSKATLTVDKSSSTAYMQLSSLTSEDSAVYYCARLNTHYVFDSWGQGTTLTLSS
VL: EIVLTQSPTTLAASPGEKITFTCSVSSSISSNYLHWYQQKPGFSPKLLISRTSTLASGVPARFSGSGSGTSYSLTIGTMEAEDVATYYCQQGSGIPFTFGSGTKLELK
notes: Mouse hybridoma mAb
Which IC50 (human IL6R-Fc protein [2]) does the source give for B6 here?
Its IC50 is 0.105 nM.

What about the IC50 (human IL6R-Fc protein [4]) of the same binder?
The IC50 was 0.231 nM.

And the EC50 (macaca IL6R-his protein)?
The EC50 was 0.213 nM.

What about the EC50 [5] of the same binder?
The EC50 was 0.246 nM.

B7: mouse anti-IL6R monoclonal antibody 1A3 (antibody, V domains shown)
VH: QVQLQQPGAELVKPGASVKLSCKASGYTFTSYWMHWVKQRPAQGLEWIGEINPSNGRTNFNEKFKTKATLTVDKSSNTAYMQLSSLTSEDSAVYSCLRLNTHYVFDYWGQGTTLTVSS
VL: EIVLTQSPTTMAASPGEKITITCSASSSISSNYLHWYQQKPGFSPKLLISRTSNLASGVPTRFSGSGSGTSYSLTIGTMEAGDVATYYCQQGSGIPFTFGSGTKLEIK
notes: Mouse hybridoma mAb purified on Protein A
For B7, which IC50 (human IL6R-Fc protein [3]) is on record?
Its IC50 is 0.166 nM.

B8: mouse anti-IL6R monoclonal antibody 1B5 (antibody, V domains shown)
VH: QVQLQQPGAELVKPGASVKLSCKASGYTFTSYWMHWVKQRPGQGLEWIGEINPSNGRTNYNENFKSKATLTVDKSSSTAYMQLSSLTSEDSAVYYCARLNTHYVFDYWGQGTTLTVSS
VL: EIVLTQSPTILAASPGEKITFTCSVSSSISSNYLHWYQQKPGFSPKLLIYRTSNLASGVPARFSGSGSGTSYSLTIGTMEAEDVATYYCQQGSGIPFTFGSGTKLEIK
notes: Mouse hybridoma mAb
Which results are given for B8?
IC50 (human IL6R-Fc protein [3]): 0.162 nM; IC50 (human IL6R-Fc protein [4]): 0.281 nM; EC50 (macaca IL6R-his protein): 0.205 nM

B9: mouse anti-IL6R monoclonal antibody 1G1 (antibody, V domains shown)
VH: QVQLQQPGAELVKPGASVKLSCKASGYTFTSYWMHWVKVRPGQGLEWIGEINPTNGRTNYNEDFKSKATLTVESSSSTAYMQFSSLTSEDSAVYYCARLNTHYVFDYWGQGTTLTVSS
VL: EIVLTQSPTILAASPGEKITFTCSVSSSISSNYLHWYQQKPGFSPKLLIYRTSNLASGVPARFSGSGSGTSYSLTIGTMEAEDVATYYCQQGSGIPFTFGSGTKLEIK
notes: Mouse hybridoma mAb
Which EC50 [1] does the source give for B9 here?
Its EC50 is 0.34 nM.

B10: mouse anti-IL6R monoclonal antibody 1H9 (antibody, V domains shown)
VH: QVQLQQPGAELVKPGASVKLSCKASGYTFTSYWMHWVKLRPGQGLEWIGEINPTNGRTNYYEKFKNRATLTADKSSSTAYMQLSSLTFEDSAVYFCAKFHYSRWYFDVWGTGTTVTVSS
VL: DIVMTQSQKFMSTSVGDRVSITCKASQNVGTAVVWYQQKPGQSPKLLINPASNRYTGVPDRFTGSGSGTDFTLTISNMQSEDLADYFCQQYSSYPLTFGAGTKLELK
notes: Mouse hybridoma mAb
Which IC50 (human IL6R-Fc protein [2]) does the source give for B10 here?
The IC50 was 0.323 nM.

What about the EC50 [5] of the same binder?
The EC50 was 0.391 nM.
